{"source": "the RNAGym collection of RNA variant scans (doi:10.1073/pnas.2313332121)", "parents": {"B1": {"name": "TPR 5TU (parent)", "chain": "GGAUCUUCUCGAUCUAACAAAAAAGACAAAUCUGCCACAAAGCUUGAGAGCAUCUUCGGAUGCAGAGGCGGCAGCCUUCGGUGGCGCGAUAGCGCCAACGUUCUCAACUAUGACACGCAAAACGCGUGCUCCGUUGAAUGGAGUUUAUCAUG"}}, "note": "This sample holds only a part of the variants without activity.", "data": [{"variants_of": "B1", "test": "polymerase ribozyme fitness, log enrichment relative to wild type (log ratio); higher = more active; in vitro selection for triplet polymerase activity", "outline": "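For each subunit of a heterodimeric triplet polymerase ribozyme, a mutant library was built by PCR and transcribed, then taken through a single in vitro selection round in triplicate. Selection involved annealing to a biotinylated primer, the partner subunit and triplets, incubation frozen at −7 °C, gel excision of extended constructs, capture on streptavidin beads and RT-PCR. Genotypes were retained after Illumina sequencing of inputs and outputs only with ≥10 input reads and ≥1 read in each output. Fitness is defined as the logarithm of a genotype's enrichment relative to wild-type enrichment, using inverse-variance-weighted averages across replicates, with the logarithm taken to base 2.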", "values": [{"variant": "GGAUCUUCUCGAUCUAACAAAAAAGACAAAUCUGCGACAAAGCUUGAGAGCAUCUUCGGAUGCAGAGGCGGCAGCCUUCGGUGGCGCGAUAGCGCCAACGUUCUCAACUAUGACACGCAAAACGCGUGCUCCGUUGAAUGGAGUAUAUCAUG", "note": "[C36G U145A]", "polymerase ribozyme fitness (log ratio)": -3.88}, {"variant": "GGAUCUUCUCGAUCUAACAAAAAAGACAAAUCUGCCACAAAGCUUGAGAGCAUCUUCAGAUGCAGAGGCGGCAGCCUUCGGUGGCGCGAUAGCGCCAACGUUUUCAACUAUGACACGAAAAACGCGUGCUCAGUUGACUGGAGUUUAUCAUG", "note": "[G58A C103U C118A C132A A138C]", "polymerase ribozyme fitness (log ratio)": "≤ -4.2"}, {"variant": "GGAUCUUCUCGAUCUAACAAAAAAGACAAAUCUGCCACAAAUCAUGAGAGCAUAUUCGGAUGCAGAGGCGGCAGCCUUCGGUGGCGCUAUAGCGCCAACGUUCUCAACUAUGACACGCAAAACGCGUGCUCCGUUGAAUGGAGUUUAUCAUG", "note": "[G42U U44A C54A G88U]", "polymerase ribozyme fitness (log ratio)": "≤ -4.2"}, {"variant": "GGAUCUUCUCGAUCUAACAGAAAAGACAAUUCUGCCACAAAGCUUGAGAGCAUCUUCGGAUGCAGAGGCGGCAGCCUUCGGUGGCGCGAUAGCGUCAACGUUCUCAACUAUGACACGCAAAACGCGUGCUCCGUUGAAUGGAGUUUAUCAUG", "note": "[A20G A30U C95U]", "polymerase ribozyme fitness (log ratio)": -3.5}, {"variant": "GGAUCUUCUCGAACUAACAAAAAAGACAAAUCUGCCACAAAGCUUGAGAGCAUCGUCGGAUGCAGAGGCGGCAGCCUUCGGUGGUGCGAUAGCGCCAACGUUCUCAACUAUGACACGCAAGACGCGUGCUCCGUUGAAUGGAGUUUAUCAUG", "note": "[U13A U55G C85U A121G]", "polymerase ribozyme fitness (log ratio)": -1.11}, {"variant": "GGAUCUGCUAGAUCUAACAAAAAAGACAAAUCUGCCACAAAGCUUGAGAGCAUCUUCGGAUGCAGAGGCGGCAGACUUCGGUGGCGAGAUAGCGCCAACGUUCUCAACUAUGACACGCAAAACGGGUGCUCCGUUGAUUGGAGUUUAUCAUG", "note": "[U7G C10A C75A C87A C125G A138U]", "polymerase ribozyme fitness (log ratio)": "≤ -4.2"}, {"variant": "GGAUCUUCUCGAUCUAACAAAAAAGACAAAUCUGCCAUAAAGCUUGAGAGCAUCUUCGGAUGCAGAGGCGGCAGCCUUCGGUGGAGCGAUAGCGCCAACGUUCUCAACUAUGACACCCAAAACGCGUGCUCCGUUGAAUGGAGUUUAUCAUG", "note": "[C38U C85A G117C]", "polymerase ribozyme fitness (log ratio)": -0.0326}, {"variant": "GGAUCUUCUCGAUCUAACAAAAAAGACAAAUCUGCCACAAAGCUUGAGAGCAUCGUCGGAUGCAGAGGCGGCAGCCUUCGGUGGCGAGAUAGCGCCAACGUUCUCAACUAUGACACGCAAAACGCGUGCUCCGUUGAAUGCAGUUUAUCAUG", "note": "[U55G C87A G141C]", "polymerase ribozyme fitness (log ratio)": -3.74}, {"variant": "GGAUCUUCUCGAUCUAACAAAAAAGACAAAUCUGCCACAAAGCUUGAGAGCAUCUUCGGAUGCAGAGGCGGCAGCAUUCGGUGGCGCGAUAGCGCCAACGUUCUCAACUAUGACACGCAAAACGCGUGCUCCGUUGAAUGGGGUUAAUCAUG", "note": "[C76A A142G U146A]", "polymerase ribozyme fitness (log ratio)": -1.52}, {"variant": "GGAUCUUCUCGAUCCAACAAAAAAGACAAAUCUGCCAAAAAGCUUGAGAGCAUCUUCGGAAGCAGAGGCGGCAGCCUUCGGUGGCGUGAUAGCGCCAACGUUCUCAACUAUGACACGCAAAGCGCGUGCUCCGUUGAAUGGAGUUUAUCAUG", "note": "[U15C C38A U61A C87U A122G]", "polymerase ribozyme fitness (log ratio)": -2.73}, {"variant": "GGAUCUUCUCGAUCUAACAAAAAAGACAAAUCUGCCACAAAGCUUGAGAGCAUGUUCGGAUGCAGAGGCGGCAGCCUUCGGUGGCGUGAUAGCGCCAACGUUCUCUACUAUGACACGCAAAACGCGUGCUCCGUUGUAUUGCGUUUAUCAUG", "note": "[C54G C87U A106U A137U G140U A142C]", "polymerase ribozyme fitness (log ratio)": "≤ -4.2"}, {"variant": "GGAUCUUCUCGAUCUAACAAAAAAGACAAAUCUGCCACAAAGCUUGAGAGCCUCAUCGGAUGCAGAGGCGGCAGCCUUCGGUGGGGCGAUAGCGCCAACGUUCUCAACUAUGACAAGCAAAACGCGUGCUCCGUUGAAUGGAGUUUAUCAUG", "note": "[A52C U55A C85G C116A]", "polymerase ribozyme fitness (log ratio)": -3.78}, {"variant": "GGAUCUUCUCGAUCUAACAAAAAAGACAAAUCUGCCACAAAGCUUGAGAGCAUCUGCGGAUGCAGAGGCGGCAGCCUUCGGUGGCGCGAUAGCGCCAACGUUCUCAACUAUGACACGCAAAACGCGUGCUCCGUGGAAUGGAGUUUAUCAUG", "note": "[U56G U135G]", "polymerase ribozyme fitness (log ratio)": -3.68}, {"variant": "GGAUCUUCUCGAUCUAACAAAAAAGUCAAAUCUGUCACAAAGCUUGCGAGCAUGUUCGGAUGCGGUGGCGGCAGCCUUCGGUGGCGCGAUAGAGCCAACGUUCUCAACUAUGACACGCAAAACGCGUGCUCCGUUGAAUGGGGUUUAUCAUG", "note": "[A26U C35U A47C C54G A64G A66U C93A A142G]", "polymerase ribozyme fitness (log ratio)": "≤ -4.2"}, {"variant": "GGAUCUUCUCGAUCUAACAAAAAAGACAAAUCUGCCACAAAGCUUGAGAGCAUCUUCCGAUGCAGAGGCGGCAGCCUUCGGUGGCGCGAUAGCGCCAACGUUCUCAACUAUGACACGCAAAACGCGUGCUCCGUUGAAUAGAGUUUAUCAUG", "note": "[G58C G140A]", "polymerase ribozyme fitness (log ratio)": -3.51}, {"variant": "GGAUCUUCUCGAUCUAACAAAAAAGUCAAAUCUGCCACAAAGCUAGAGAGCAUCUUCGGAUGCAGAGGCGGCAGCCUUCGGUUGCGCGAUACCGCCAACGUUCUCAACUAUGACACGCAAAUCGCGUGCUCCGUUGAAUGGAGUUUAUCAUG", "note": "[A26U U45A G83U G92C A122U]", "polymerase ribozyme fitness (log ratio)": "≤ -4.2"}, {"variant": "GGAUCUUCUCGAUCUAACAAAAAAGACAAAUCUGCCACAAAGCUUGAGAGCAUCUUCGGAUGCAGAGGCGGCAGCCUUCGGUGGCGCGAUAGCACCAACGUUCUCAACUAUGACACGCAAAACGCGUGCUCCGUUGAACGGAGUUUAUCAUG", "note": "[G94A U139C]", "polymerase ribozyme fitness (log ratio)": -3.82}, {"variant": "GGAUCUUCUCGAUCUAACAAAAAAGACAAAUCUGCCACAAACCUAGAUCGCAUCUUCGGAUGCAGAGGCGGCAGUCUUCGGUGGCGCGAUAGCGCCAACGUUCUCAACUAUGACACGGAAAACGCGUGCUCCGUUGAAUGGAGCUUAUCAUG", "note": "[G42C U45A G48U A49C C75U C118G U144C]", "polymerase ribozyme fitness (log ratio)": "≤ -4.2"}, {"variant": "GGAUCUUCUCGAUCUAACAAAAAAGACAAAUCUGCCACAAAGCUUGAGGGCAUCUUCGGAUGCAGAGGCGGCAGCCUUCGGUGGCGCGAUAGCGCCAACGUUCUCAACUAUGACACGCAAAACGCGUGCUCCGUUGAAUAGAGUUUAUCAUG", "note": "[A49G G140A]", "polymerase ribozyme fitness (log ratio)": -3.77}]}]}
